Measurements taken from the DeepSol protein solubility set.

assay: soluble on expression in E. coli; label from the status in PepcDB or PDB records

**Q.** With “MGSDKIHHHHHHMRIVVSGGGTGGHIYPALAMIREIERRTPCEVLYIGTENGLEADIVRRAGIPFESIEISGIRRSLSFENVKTGFRFLKSVVRVRKLLRDFQPDIVVGTGGFVCGPVLYTAAKMGYKTLVHEQNSLPGITNKFLARYVDRVALSFKGSGHHFGKNKGKTILIGNPRASEVAMLQIDPVEEKRKYGFEQDRPLIVVYGGSRGAPAINKAVVDMIPKLTETDWSLLFVTGQVHYEDIQAQLGTLPDRIQLRPFIYDLPLILKASQLVISRSGASTLAELTTLGLPSILIPSPYVTENHQEVNASSLVETGASLLIRESELTGDRLFDACTKAIADQADMSKASLALGMPNAASDLVDELLRLIQRKN” as the sequence, how does the “soluble on expression in E. coli” value read?
**A.** Its value is “not soluble”.

**Q.** For “WKRGKISTQLDDDEFRAGMRKAQVIDVREKKEFDAGHILGARNIPYSQMKNRTQELRSDLPVYLYDQGRTFSGRAAMLLSKKGFTQLYILKNGYQRWTGKTKKTKY”, which “soluble on expression in E. coli” value is on record?
**A.** Its value is “soluble”.

**Q.** For “MNTQILGLHHVTAMTSSAEKIYHFFTDILGLRLIKKTVNQDDIETYHLFFADDAGSPGTDMTFFDFPGLPKGTKGTNTISRTSFRVKDDATLDYWVSRFNEYAIDHGEIQERFGKKYLEFEDFDNQRYQLISDEKNQCVAAGTPWKKSNVPSEHALIGLGPAFVTVENYEHLQLVLTEVLGFKLIDAEGSFHLFEVGEGGNGASIIVEHREDLPAAQEGYGNVHHLALRVADEEALRFWIEKINRLEFPNSGFVERFYFKSEYFLAATHVLFELATDGPGFLEDETYEHAGEKLSLPPFLEPKRAGIEEFVRPFDTSDANVQRN”, which “soluble on expression in E. coli” value is on record?
**A.** Its value is “not soluble”.

**Q.** For “MGSDKIHHHHHHMTTVLPLDPARYTPHLLHSAERMWPETNCYVDLWIEVLCVLGLPPEAMLGFTLTQDFEGDQFTFFKVPLEDLEALYGIRVTELAIFDRAEAHVAQQISRGRLCLVEMDSYFMPDTAGVGYRQHHGKTTVGVNRLDLAGRSMDYFHNGGFFRLEAEDFDGIWQLAAPETAPFLPYTEFAKFPETRPDETHLRAVAKRLFAFHFARRPQGNPFAGFAEVFPAQVEAIAERPFGYFHTYAFNTLRQFGANFELLASHLKWLAADDRYTNEIAEALRISELAKTVQFQLARAVTRKKFDPLKAALDPAIDAWDRLMTGLADKMA”, which “soluble on expression in E. coli” value is on record?
**A.** Its value is “not soluble”.

**Q.** With “MFLAGAFIAVGSLYAQSSDAEWQAGVAKLKETIQTNPAQANEEAEQLIKGKNKKNVELLVAIGEVYLKAGKLPEAQEYAALAKKVNGKSALASVLEGDIAFEQKNAGLASQKYEEAIYFDPSCTEAYLRYADIYKSANAALAIEKLEQLKAQEPSNTAVDKKLAEIYYLKNDFSKAAEAYSRFAMGPTATEEDLVKYAFALFLNHDFEKSLEVANMGLKKNARHAAFNRLAMYNYTDLKRFDEAIKAADAFFTESDKADYSYLDYMYYGHLLEALKKYDEAVGQYEKAIQLDPTKTDLYKNISSAYEQKNDYKKAISAYQKYYTSLDKLEHHHHHH” as the sequence, how does the “soluble on expression in E. coli” value read?
**A.** Its value is “soluble”.

**Q.** With “MGSDKIHHHHHHMHHVVGVRFKKAGKIYYFSPGDLDIPRGESVIVETSRGVEYGNVVIEKKTVGDNDVVLPLKQVIRVATEKDKLAVQENKEAAKKAYDVCVQKIMEHQLDMKLVDVEYTFDRNKVLFYFTADGRIDFRELVKDLASVFRTRIELRQIGVRDEAKMLGGIGPCGRILCCSSFLGDFEPVSIKMAKDQNLSLNPAKISGLCGRLMCCLKYENDMYESAKQELPDLGETIDTPHGKGKVVGLNMLERLVQVHLFEGERVLEFSLEELLERGAVSAEATE” as the sequence, how does the “soluble on expression in E. coli” value read?
**A.** Its value is “not soluble”.

**Q.** Which “soluble on expression in E. coli” value does the source give for “AIAGTHSGHERNGESARGGALQRLERRLAAAWAEQDAYQIEQLAGMIYDRLVRSDPSAAATVLEQNAHRLAVAGKPAEAAELATRLIRHWRELEQRPFYLARLQQMVLEPLQALSGVEAARARTMVLEAVLAWKRASATVDTEEAAPAELAPVQDALVDAYVLCGEWARAQYQVVCRGGPAERDLAFIDEQLGPHLANDVERMLARTRLVLFYVLAGNLKAGRALVEEIQRKHPTAPMTNFVVILMQVLERARNVDSSKRRLLRNFCDDLKRVYHWAFSLDPELDAMLDDVLKAQGL” here?
**A.** The value was “soluble”.

**Q.** For “MLASARRALHPGHPPAIHRAMNSEIDPGRCPLCQQSNRCTLAYPTSATQACWCFTTEIDAAVLERIPAELRRRACLCPRCAQLLPPDADD”, which “soluble on expression in E. coli” value is on record?
**A.** Its value is “not soluble”.

**Q.** Which “soluble on expression in E. coli” value does the source give for “DHWLRQDLRQMFIEELGSNAREIIQFVVGSHDIGKATPLFQYQKAQKGEVWDSIRYAIDRTGRYQKPLPSSYLVKKTSGGPNRHEQWSSFASKNEYLKPSAAAKENWIGLAIGGHHGRFEPVGYGRHQRKAAEDLAKSGWSAAQQDLLRALEKASGITRASLPSELSPELTLVLSGLTILADRISSTESFVITGARMIDDGTLHLATPIDWLKTRKLDSEKHVAKTVGIYHGWNNHESAIHSILKGYDPRPLQTIALQNQVGLLNLMAPTGNGKTEAAILRHSLKENDRLIFLLPTQATSNAIMRRVQGIYSDTPNVAALAHSLASVEDFYQTPLSVFDDHYDPSKEQFESSMSG” here?
**A.** Its value is “not soluble”.

**Q.** For “MGSDKIHHHHHHMSQRIGVIDMGTNTFHLLITDIVNDRPHTLVNEKSAVGLGKGGITKGFITEEAMDRALDTLKKFRVILDEHAVVHVIATGTSAVRSGSNKQVLIDRIKKEVNIDVEVIDGAREAELIFRGVQQAVPMEDHISLAMDIGGGSVEFIIGNKNEILWKQSFEIGGQRLIDRFHVHDPMREDDRVMMHNYFDEVLVPLEKAINTWRPTQLIGCSGTFDTLAEMNIQHHREKIALEKQTSYLLSLPDFNRLRKQLVASTRRERLAIAGMIELRADMVVVAICLIEHVLKLVSTNAITVSTYSLKEGVLYTMLDGVKVGS”, which “soluble on expression in E. coli” value is on record?
**A.** Its value is “not soluble”.

**Q.** For “MSLTGELHPIFNADALGASHRLHAHTHGDGTKIVGYYNKHLRLGRFTEQTYKSWHAEVDAKASSILNGSGSLLAFYGDHIIEVVDREGKKITLTVNGGIKQVLWHPLAYLDSCLVVLTGQETIEIYELNEPRYEKPTLVLNEPTSQLGISSRVIDITNIAFAPDGLSLYLFSTSEGGDVHVICPLLPSRIKADRAKWARQWNKATALYSTLTKDTPDDAKVATIEYLEFVTQLLQAIEKNGSDGELVIPEHRRRTISQGPYNIHGFPEKLYSAVGTKLTVVPLGESEAHLLLLSFDDSTNILLFPSTEVLMSWTKDLKNAYTLMLVEEFTATGTAFATCDGVAVLGIDSAQRVEIPYLQALEDCIRDCNLAALQDINFTSSICKIPGKFHSVARFNAPGNKGIILVGDHHAKIVPSTEAAKSDTETELDSQPGKEPTYTVCFPNSLEEILNTNKELQRRKHQPLPLVPPALKNEGHHHHHH”, which “soluble on expression in E. coli” value is on record?
**A.** The value was “soluble”.

**Q.** Which “soluble on expression in E. coli” value does the source give for “MDWIQCNHCGIKPNQTKLYLTACGHVFCQNCTKAAFNSQCYLCKKPLKVDEINKNLRPDLMELFKDPRQLASDLVNELKQVVAFQAKQREIYVKCKNAEAKKDTERFAEARSKHVEKTQEIEKRKKAFLEDNVKLKNAKEEKNQLMARLKELREQPSQNLSVNKRRSNTRTEPPFSKISRTGPPSVMRKASHEFSLNLRDQSTSKILTSTPLSNIDYSRRDHRNRLFGAGLEHPSPILRQ” here?
**A.** The value was “soluble”.

**Q.** For “MGSDKIHHHHHHENLYFQGMTQFKLIGFDLDGTLVNSLPDLALSINSALKDVNLPQASENLVMTWIGNGADVLSQRAVDWACKQAEKELTEDEFKYFKRQFGFYYGENLCNISRLYPNVKETLEALKAQGYILAVVTNKPTKHVQPILTAFGIDHLFSEMLGGQSLPEIKPHPAPFYYLCGKFGLYPKQILFVGDSQNDIFAAHSAGCAVVGLTYGYNYNIPIAQSKPDWIFDDFADILKITQ”, which “soluble on expression in E. coli” value is on record?
**A.** Its value is “soluble”.

**Q.** For “MSLSEIVVSKFGGTSVADFDAMNRSADIVLSDANVRLVVLSASAGITNLLVALAEGLEPCERFEKLDAIRNIQFAILERLRYPNVIREEIERLLENITVLAEAAALATSPALTDELVSHGELMSTLLFVEILRERDVQAQWFDVRKVMRTNDRFGRAEPDIAALAELAALQLLPRLNEGLVITQGFIGSENKGRTTTLGRGGSDYTAALLAEALHASRVDIWTDVPGIYTTDPRVVSAAKRIDEIAFAEAAEMATFGAKVLHPATLLPAVRSDIPVFVGSSKDPRAGGTLVCNKTENPPLFRALALRRNQTLLTLHSLNMLHSRGFLAEVFGILARHNISVDLITTSEVSVALTLDTTGSTSTGDTLLTQSLLMELSALCRVEVEEGLALVALIGNDLSKACAVGKEVFGVLEPFNIRMICYGASSHNLCFLVPGEDAEQVVQKLHSNLFEEGHHHHHH”, which “soluble on expression in E. coli” value is on record?
**A.** Its value is “soluble”.

**Q.** For “MGSDKIHHHHHHMSASIPETMKAVVIENGKAVVKQDIPIPELEEGFVLIKTVAVAGNPTDWKHIDFKIGPQGALLGCDAAGQIVKLGPNVDAARFAIGDYIYGVIHGASVRFPSNGAFAEYSAISSETAYKPAREFRLCGKDKLPEGPVKSLEGAVSLPVSLTTAGMILTHSFGLDMTWKPSKAQRDQPILFWGGATAVGQMLIQLAKKLNGFSKIIVVASRKHEKLLKEYGADELFDYHDADVIEQIKKKYNNIPYLVDCVSNTETIQQVYKCAADDLDATVVQLTVLTEKDIKEEDRRQNVSIEGTLLYLIGGNDVPFGTFTLPADPEYKEAAIKFIKFINPKINDGEIHHIPVKVYKNGLDDIPQL”, which “soluble on expression in E. coli” value is on record?
**A.** The value was “not soluble”.

**Q.** Which “soluble on expression in E. coli” value does the source give for “MAHHHHHHVDDDDKMAGDSAAYQRTSLYGDDVVIVAAHRTPLCKSKRGNFKDTYPDDLLAPVLRALIEKTNLNPSEVGDIVVGTVLAPGSQRASECRMAAFYAGFPETVAVRTVNRQCSSGLQAVADVAAAIKAGFYDIGIGAGLESMTTNPMAWEGSVNPAVKKFAQAQNCLLPMGVTSENVAQRFGVSRQEQDQAAVDSHRKAAAATAAGKFKDEIIPVKTKLVDPKTGDEKPITVSVDDGIRPTTTLASLGKLKPVFKKDGTTTAGNSSQVSDGAGAVLLMKRSVAMQKGLPVLGVFRTFAAVGVDPAIMGIGPAVAIPAAVKAAGLELDDIDLFEINEAFASQFVYCRNKLGLDPEKINVNGGAMAIGHPLGATGARCVATLLHEMKRRGKDCRFGVVSMCIGTGMGAAAVFERGDGVDELRNARKVEAQGLLSKDAR” here?
**A.** Its value is “soluble”.

**Q.** With “MGSDKIHHHHHHMMNLSELAPDYIRAIQPYQPGKPISELVRDLGLNKDEVVKLASNENPLGTSPLAKEAMIQALNESARYPDGSGFELKAALSERLGMPADQIVLGNGSNDVLELATRIFLHPDSTAIYSQYAFAIYPLLAQAVGARGIAVPARNYGHDLEAMLAAVTPETRIIFIANPNNPTGTLCDARDLLRFMERVPQDVLVILDEAYDEYLPEANKANSIAWLKNFQNLVITRTFSKAYGLASVRVGFALAHADIANLMNRIRQPFNVNSIGLAAAQAALKDVEFVKLAYMTNRTGMQQMTHGLDQLGIEYIPSFGNFVCCHIDGHPANTLKIYRNLLQQGVIVRPLGNYDMLNHLRVTIGIEEENKRFLQALEQALKELD” as the sequence, how does the “soluble on expression in E. coli” value read?
**A.** Its value is “not soluble”.

**Q.** For “SAKVSELYDVTWEEMRDKMRKWREENSRNSEQIVEVGEELINEYASKLGDDIWIIYEQVMIAALDYGRDDLALFCLQELRRQFPGSHRVKRLTGMRFEAMERYDDAIQLYDRILQEDPTNTAARKRKIAIRKAQGKNVEAIRELNEYLEQFVGDQEAWHELAELYINEHDYAKAAFCLEELMMTNPHNHLYCQQYAEVKYTQGGLENLELSRKYFAQALKLNNRNMRALFGLYMSASHIASNPKASAKTKKDNMKYASWAASQINRAYQFAGRSKKETKYSLKAVEDMLETLQITQS”, which “soluble on expression in E. coli” value is on record?
**A.** The value was “not soluble”.

**Q.** For “GPLGSEVKKKKNKKKNKKVNGLPPEIAAVPELAKYWAQRYRLFSRFDDGIKLDREGWFSVTPEKIAEHIAGRVSQSFKCDVVVDAFCGVGGNTIQFALTGMRVIAIDIDPVKIALARNNAEVYGIADKIEFICGDFLLLASFLKADVVFLSPPWGGPDYATAETFDIRTMMSPDGFEIFRLSKKITNNIVYFLPRNADIDQVASLAGPGGQVEIEQNFLNNKLKTITAYFGDLIRRPASET”, which “soluble on expression in E. coli” value is on record?
**A.** Its value is “soluble”.
